# According to publication PMC11838356 (bioRxiv, 2025):
# B1: ArnC from Salmonella enterica (ArnCSe) (enzyme, UniProt O52324 1-327, looked up)
# chain: MFDAAPIKKVSVVIPVYNEQESLPELIRRTTTACESLGKAWEILLIDDGSSDSSAELMVKASQEADSHIISILLNRNYGQHAAIMAGFSHVSGDLIITLDADLQNPPEEIPRLVAKADEGFDVVGTVRQNRQDSLFRKSASKIINLLIQRTTGKAMGDYGCMLRAYRRPIIDTMLRCHERSTFIPILANIFARRATEIPVHHAEREFGDSKYSFMRLINLMYDLVTCLTTTPLRLLSLLGSVIAIGGFSLSVLLIVLRLALGPQWAAEGVFMLFAVLFTFIGAQFIGMGLLGEYIGRIYNDVRARPRYFVQQVIYPESTPFTEESHQ
# Target: the molecule itself
# Test: cryo-EM structure
protein,measurement,value
B1,stoichiometry N,4
